Target: human IL-12 receptor (IL-12R) (human) (UniProt P42701)
Experiment: cell-based or functional assay

Substance mIL-12-Fc-wt (Fc fusion) has a Mean Fold Reduction (potency vs IL-12 WT by EC50; HEK-Blue IL-12 STAT4/SEAP reporter) of 1 fold.
